Measured values published in patent publication US20150017230A1 (ACADEMIA SINICA, published 2015).

T1: EpCAM antigen immobilized on CM5 sensor chip (human, UniProt P16422 24-265, limits assumed)
T1 sequence: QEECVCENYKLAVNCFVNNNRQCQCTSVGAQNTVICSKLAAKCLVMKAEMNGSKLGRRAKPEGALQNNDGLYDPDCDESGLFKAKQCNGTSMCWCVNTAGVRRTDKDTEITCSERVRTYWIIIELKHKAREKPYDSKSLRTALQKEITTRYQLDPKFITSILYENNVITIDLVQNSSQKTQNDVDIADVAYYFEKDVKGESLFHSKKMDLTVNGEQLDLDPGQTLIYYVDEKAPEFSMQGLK

T2: human epithelial cell adhesion molecule (EpCAM), endogenous in SAS and other cancer cells (human, UniProt P16422 24-314)
T2 construct: also called TACSTD1; epithelial specific antigen (ESA)
T2 sequence: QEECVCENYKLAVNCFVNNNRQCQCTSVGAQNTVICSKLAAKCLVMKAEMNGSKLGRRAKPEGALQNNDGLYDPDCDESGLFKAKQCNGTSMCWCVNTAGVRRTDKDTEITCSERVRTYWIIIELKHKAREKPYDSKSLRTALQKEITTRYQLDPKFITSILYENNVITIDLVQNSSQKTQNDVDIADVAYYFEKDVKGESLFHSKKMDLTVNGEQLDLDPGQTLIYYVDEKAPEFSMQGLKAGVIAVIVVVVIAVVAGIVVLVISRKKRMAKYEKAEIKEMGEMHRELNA


Tests used:
[1] = target: T1, EpCAM antigen immobilized on CM5 sensor …; assay: SPR (BIAcore), EpCAM antigen immobilized on CM5 chip, mAb injected
Procedure: (§1) The affinity of murine and humanized antibodies was performed by surface plasmon resonance (BIAcore T100, Biacore, Inc). EpCAM antigen was immobilized on a Series S Sensor Chip CM5 (Biacore, Inc) and injected at a flow rate of 10 μl/min. The mAbs were diluted in HBS-EP⁺ buffer (Biacore, Inc) and injected at a flow rate of 50 μl/min for 1.5 min, and were allowed to dissociate over 5 min. […] The data were analyzed by the BIAevaluation software with a global fit 1:1 binding model.

[2] = target: T2, human epithelial cell adhesion molecule …; assay: cellular ELISA on SAS cells, OD490nm
[3] = target: T1, EpCAM antigen immobilized on CM5 sensor …; assay: SPR (BIAcore T100), EpCAM antigen immobilized on CM5 chip, mAb injected, 1:1 global fit
Procedure: as §1

| Kd [1] [pM] | koff [1] [s⁻¹] | kon [1] [M⁻¹ s⁻¹] | EC50 (read off the curve) [2] [µg/mL] | Kd [3] [pM] | Binder |
| --- | --- | --- | --- | --- | --- |
| 1.23 | 3.52e-07 | 286000 |  |  | EpAb4-1 (antibody, V domains shown) VH: QIQLVQSGPELKKPGETVKISCKASGYTFTNYGMNWVKQAPGKGLKWMGWINTYTGEPTYGDDFKGRFAFSLETSASTAYLQINNLKNEDTATYFCARFGRSVDFWGQGTSVTVSS VL: DIVMTQAAFSNPVTLGTSASISCRSSKSLLHSNGITYLYWYLQKPGQSPQLLIYHMSNLASGVPDRFSSSGSGTDFTLRISRVEAEDVGIYYCAQNLENPRTFGGGTKLEIK |
|  | 0.00014 | 401000 | ~0.01 | 349 | EpAb2-6 (antibody, V domains shown, Mouse hybridoma monoclonal IgG; also called mEpAb2-6; murine EpAb2-6) VH: EVQLVESGPELKKPGETVKISCKASGYTFTDYSMHWVKQAPGKGLKWMGWINTETGEPTFADDFKGRFAFSLETSARTTYLQINNLKNEDTATYFCARTAVYWGQGTSLTVSS VL: DIQLTQSPSSLSASLGERVSLTCRASQEISVSLSWLQQKPDGTIKRLIYATSTLDSGVPKRFSGSRSGSDYSLTISSLESEDFADYYCLQYASYPWTFGGGTKLEIKR |
|  | 0.000254 | 376000 | ~0.02 | 677 | humanized EpAb2-6 (antibody, V domains shown, CDRs of EpAb2-6 grafted onto a human IgG1 backbone; also called hEpAb2-6) VH: VKLQESGPELKKPGETVKISCKASGYTFTDYSMHWVKQAPGKGLKWMGWINTETGEPTYADDFKGRFAFSLETSASTAYLQINNLKNEDTATYFCARTAVYWGQGTTVTVSS VL: DIQMTQSPSSLSASLGERVSLTCRASQEISVSLSWLQQEPDGTIKRLIYATSTLDSGVPKRFSGSRSGSDYSLTISSLESEDFVDYYCLQYASYPWTFGGGTKLEIKR |
